In article PMC2885054:

Experiments:
[1] = target: V5-tagged BUNV L protein expressed from a transfected cDNA construct (Bunyamwera virus) (UniProt P20470); test: co-IP; as a2, but with a viral transcript co-expressed: N from pT7riboBUNS (also full-length S antigenome RNA), or additionally pT7riboBUNM(+) or minigenome pT7riboBUNMREN(-); bands quantified by phosphorimager and normalised to expression
[2] = target: Bunyamwera virus (BUNV) nucleoprotein (N) (Bunyamwera virus) (UniProt P16495); test: as above

“Bunyamwera virus (BUNV) nucleoprotein (N) (from UniProt P16495 1-233) (natural protein)” showed a fold more co-precipitated than in cells transfected with pTM1-BUNS [1] of 5 fold.
“V5-tagged BUNV L protein expressed from a transfected cDNA construct (from UniProt P20470 1-2238)” gave a fold more co-precipitated than in cells transfected with pTM1-BUNS [2] of 8 fold.
